{"source": "the DeepSol protein solubility set", "data": [{"assay": "soluble on expression in E. coli; label from the status in PepcDB or PDB records", "values": [{"sequence": "MAHHHHHHMLSNVPEEPEKLVREVSDLAEAFITNLKRGKLAAARSGGESLSTAAAVEMADVMSTIVRLFQNAEKDLHSTTIQLLKAGYPAAEVASMQVSRLLILVARTGDAMLRAQFATLFLMNVTRRVLSIVRESAANSKATDAELEDEAKTILNDLASDDEAAVVETPADTSSSSSNRCGMDDSTDPASPSLSAKGMKPALKRDTLVSQPLSRRGLSVRFAGTSTSSEEASGGHMRQLQQHSTSVASDFGGPLLQHTGSIVATEIPGRQLLKRAPSRCEQVLEGGGGEIEFPVRMEIFYQDALDAIDEFKRELEGMTEELCRRSTRQLHSSDTIITLGCSHTIRRYLLEAAQAGHHFKVFILEGAPLPAQATQEFAEALCSRGITAQLLPDSSAYVVMSMCTKVLVGAENVLANGGMLASIGTHVLCAAARHFAVPVLVATTTLKMSPYYPSDQLCTRLVRIARSGAQEMPWSTYGSPEDVWPSPFGVSVSDSGRRLTIHAPVTEYVPPELITLFLTNDSELLPSQIHRIVRANYSDAD", "soluble on expression in E. coli": "not soluble"}, {"sequence": "DPATVFRLVAAEALTLTGADGTLVAVPADPDASAAEELVIVEVAGAVPAEVEASAIPVQDNAIGQAFRDRAPRRLDVLDGPGLGGPALVLPLRATDTVAGVLVAVQGSGARPFTAEQLEMMTGFADQAAVAWQLASSQRRMSELDILAD", "soluble on expression in E. coli": "soluble"}, {"sequence": "MMFKNFPFFKGKKDTSFDHLVEEVKKGYIPEHIAIIMDGNGRWAKRRAMPRIAGHHEGMQVVKKITKFASKLNVKVLTLYAFSTENWKRPKKEVDYLMQLPEEFLGTFLPELIEENVQVRVIGQQDRLPTHTRRAMEKAMEETKENTGLILNFALNYGSRDEIVSAVQHMMKDSEEGKVRVEDVSEEMLSSYLMTSSLPDPELLIRTSGELRISNFMLWQIAYSEFWFTDVYWPDFTEEHLLNAITDFQHRGRRFGGV", "soluble on expression in E. coli": "not soluble"}, {"sequence": "MVTPREPKKRTTRKKKDPNAPKRALSAYMFFANENRDIVRSENPDITFGQVGKKLGEKWKALTPEEKQPYEAKAQADKKRYESEKELYNATLA", "soluble on expression in E. coli": "soluble"}, {"sequence": "GEAPADRLKALVDAAVQPVMKANDIPGLAVAISLKGEPHYFSYGLASKEDGRRVTPETLFEIGSVSKTFTATLAGYALTQDKMRLDDRASQHWPALQGSRFDGISLLDLATYTAGGLPLQFPDSVQKDQAQIRDYYRQWQPTYAPGSQRLYSNPSIGLFGYLAARSLGQPFERLMEQQVFPALGLEQTHLDVPEAALAQYAQGYGKDDRPLRVGPGPLDAEGYGVKTSAADLLRFVDANLHPERLDRPWAQALDATHRGYYKVGDMTQGLGWEAYDWPISLKRLQAGNSTPMALQPHRIARLPAPQALEGQRLLNKTGSTNGFGAYVAFVPGRDLGLVILANRNYPNAERVKIAYAILSGLEQQGKVPLKR", "soluble on expression in E. coli": "soluble"}, {"sequence": "MGSDKIHHHHHHMTAAESIYALYPYIQHAQLLAHNEKIKQDNVIFTYTVSLSYDEISLRVLHVDSDNTKHIHIQVLFEINQGKIYVKDLYHNSGAAFELLTSIKSNPSLHQASFAQNSVPASWLSRDILNSLAIADRIAQKAINQYAGDDYRPGYYSQIECSGTQLILSQINHMNSRSLSHKENYSLRNLTFTIPLNGKADSEMLYNTDRIGIMNINFSDHSSANNRSAGDAVKNQIAEEIRLYQNDVE", "soluble on expression in E. coli": "not soluble"}, {"sequence": "MKMKILGISFGTKNGNNDTMCKVALKGAKEAGAEVEFIQMSSINIKHCTGCCACVKTLLSGKGSMCVLKDDFEWLLDKMKDADGIVVSDPIFEEGASGLFHTIMDRFGPRADRGNNIIGTKVAEAIGGKIPDSRMLNDKVISFMGIGGSDWGTRVQCEHAMLALIPMWKVIDNAWFPWAKELVMDDTRLVQVHQIGLNIVEAAKDFEKASYQGEEGVCPHCHNRLFYLEPGTKKAICALCGIVGELDTISGKTIFSFPEEQLGHAHDTLPGKFIHGDDIKKMEGHYAEVRKTQEFKERKTSYNFIETLTKEKQAGLEHHHHHH", "soluble on expression in E. coli": "not soluble"}, {"sequence": "MRVGIPTETKNNEFRVAITPAGVAELTRRGHEVLIQAGAGEGSAITDADFKAAGAQLVGTADQVWADADLLLKVKEPIAAEYGRLRHGQILFTFLHLAASRACTDALLDSGTTSIAYETVQTADGALPLLAPMSEVAGRLAAQVGAYHLMRTQGGRGVLMGGVPGVEPADVVVIGAGTAGYNAARIANGMGATVTVLDINIDKLRQLDAEFCGRIHTRYSSAYELEGAVKRADLVIGAVLVPGAKAPKLVSNSLVAHMKPGAVLVDIAIDQGGCFEGSRPTTYDHPTFAVHDTLFYCVANMPASVPKTSTYALTNATMPYVLELADHGWRAACRSNPALAKGLSTHEGALLSERVATDLGVPFTEPASVLAHHHHHH", "soluble on expression in E. coli": "soluble"}, {"sequence": "TKDWKWKLSFNATTYKNKITSLPAEEMWSGNKKWVKGGSLYDFYLVEWAGVNPENGNPTWYRYNTNGEKITTEDYSSTTPDDKVKCGNSLPDWTGGLQSDLSFKDFTLSFLFSYSIGGKIYNGDKVSLMSQGPTGTGWSVDMLDRWTPENPYTDVPRLTTSPKSSWTNSSNRFLVDRSYLRLKNITFSYNLPKSLLNTLTLKDASIFFQAENMLTLAKQQGLDPEQTFGGSTYYRYPAMKTISFGINVKL", "soluble on expression in E. coli": "not soluble"}, {"sequence": "SIMTVRTTHTEVEVHAGGTVELPCSYQLANDTQPPVISWLKGASPDRSTKVFKGNYNWQGEGLGFVESDSYKESFGDFLGRASVANLAAPTLRLTHVHPQDGGRYWCQVAQWSIRTEFGLDAKSVVLKVTGHTPSNNVHVSTAEVVQVDEGNDITMTCPCTDCANANVTWYTGPTFFENYETGTYQPLANKNQFGITWFSSEIAGRASFSGARNLVIRAAKITDAGRVWCELATGQGELDADRSSTILKV", "soluble on expression in E. coli": "soluble"}, {"sequence": "MGSDKIHHHHHHMEEEAIVPEVLLDKAIELGLSFTGSTFPISIFPSEIRNIIAEVHECQGFPIDYIASAMLVAIAVGIGNTHLAELKRGWQESTMLYVALVGRPGTNKSHPLSFAMKPFLDFDYQENKLYERSYAEYDNIMRMNRKERIEGGFPDQPTEPMRKRFLVSDITPEGLSFIHAQNKRGLCLWTDELSAWFKNFNRYNSGSEEQFWLSVFSAKATISDRKGNRSSIFIKRPYISVVGTIQKKILGELSKGERSSNGFIDRILFVMPNLQQKARWSRTELPDDTEKRWGGIIRRLIDLPCAKDEEGEVTPEIIPFEEDAKARLYMWQEEHARLCDTEANEVLVGVYCKLEIYIIRFCLIIQLARWVCGESEKSAIDLTSVERAITLTEYFRHSAQQVHAEIAGVQLTQQQQQLLAELPASFQTAEALSIAQKLGMKERAFKDFLSRNIGHLFAKERHGLYHKLNM", "soluble on expression in E. coli": "not soluble"}, {"sequence": "MSLVVGTDAHKYSHTFVATDEVGRQLGEKTVKATTAGHATAIMWAREQFGLELIWGIEDCRNMSARLERDLLAAGQQVVRVPTKLMAQTRKSARSRGKSDPIDALAVARAVLRETDLPLATHDETSRELKLLTDRRDVLVAQRTSAINRLRWLVHELDPERAPAARSLDAAKHQQALRTWLDTQPGLVAELARAELTDIIRLTGEINTLAQRISARVHQVAPALLEIPGCAELTAAKIVGEAAGVTRFKSEAAFACHAAVAPIPVWSGNTAGQMRLSRSGNRQLNAALHRIALTQIRMTDSRGQAYYQRLQDAGKTKRAALRCLKRRLARTVFQALRTVHQPSSEHTQPAAACHRSYCSSHLGEPPRLTDMTQKTRIQPLPPKRAGLLIRALYRIAKRRFGEVPEPFTVTAHHRRLLIANVVHEALLQRASRKLPPSVRELAVFWTARSIGCSWCVDFGAMLQRLDGLDVDRLTDIDNYATSSKFSDDERAAIAYAEAMTADPHSVTDEQVADLRARFGEAGVIELTYQIGVENMRARMNSALGITEQGFNSGDACRVPWAAPDVPSAESREGHHHHHH", "soluble on expression in E. coli": "not soluble"}, {"sequence": "MGSDKIHHHHHHGTSGTSKSSKTQLTGQSSDGDYEGVIKSGHYQTSKSRGVTNSQDSGNTYNVKSFENGMLGVSKKVFSTKSYVFQEGQYLSSSTVQNWLDRKTKSNPTGLNPKSNGSTSPTKRNPVYIQALEEQDYMTQKNNKLSLGGVTIGIAVNSVDYYKKTQYGATYETKITKAEGEAYAKKAANTVLKRLRKKSALKNVPIVIAIYRQASNDSLVGGNFIAYSENKGSATTVSKWNALSEKNYVFPIESGSSSPNSNDETSFTNFKSQVENFFPNLSGVTAQAHYSGNTLTGMHVNITTQFYSQTEIISFTQYLQTAAQKYLPSSVPIDITVSSTDSVQSFLSRSSGAKKFTSHVFNSY", "soluble on expression in E. coli": "not soluble"}, {"sequence": "MKERVIITGANGQLGKQLQEELNPEEYDIYPFDKKLLDITNISQVQQVVQEIRPHIIIHCAAYTKVDQAEKERDLAYVINAIGARNVAVASQLVGAKLVYISTDYVFQGDRPEGYDEFHNPAPINIYGASKYAGEQFVKELHNKYFIVRTSWLYGKYGNNFVKTMIRLGKEREEISVVADQIGSPTYVADLNVMINKLIHTSLYGTYHVSNTGSCSWFEFAKKIFSYANMKVNVLPVSTEEFGAAAARPKYSIFQHNMLRLNGFLQMPSWEEGLERFFIETKSH", "soluble on expression in E. coli": "not soluble"}, {"sequence": "MAEARSQPSAGPQLNALPDHSPLLQPGLAALRRRAREAGVPLAPLPLTDSFLLRFLRARDFDLDLAWRLLKNYYKWRAECPEISADLHPRSIIGLLKAGYHGVLRSRDPTGSKVLIYRIAHWDPKVFTAYDVFRVSLITSELIVQEVETQRNGIKAIFDLEGWQFSHAFQITPSVAKKIAAVLTDSFPLKVRGIHLINEPVIFHAVFSMIKPFLTEKIKERIHMHGNNYKQSLLQHFPDILPLEYGGEEFSMEDICQEWTNFIMKSEDYLSSISESIQ", "soluble on expression in E. coli": "soluble"}, {"sequence": "MLRVRCLRGGSRGAEAVHYIGSRLGRTLTGWVQRTFQSTQAATASSRNSCAADDKATEPLPKDCPVSSYNEWDPLEEVIVGRAENACVPPFTIEVKANTYEKYWPFYQKQGGHYFPKDHLKKAVAEIEEMCNILKTEGVTVRRPDPIDWSLKYKTPDFESTGLYSAMPRDILIVVGNEIIEAPMAWRSRFFEYRAYRSIIKDYFHRGAKWTTAPKPTMADELYNQDYPIHSVEDRHKLAAQGKFVTTEFEPCFDAADFIRAGRDIFAQRSQVTNYLGIEWMRRHLAPDYRVHIISFKDPNPMHIDATFNIIGPGIVLSNPDRPCHQIDLFKKAGWTIITPPTPIIPDDHPLWMSSKWLSMNVLMLDEKRVMVDANEVPIQKMFEKLGITTIKVNIRNANSLGGGFHAWTCDVRRRGTLQSYLD", "soluble on expression in E. coli": "soluble"}, {"sequence": "MRAIDLNSDLGESFGAWSMGDDAAMLDIVTSANVACGFHAGDPAGILRTLKAAAAKNVTIGAHVSYPDKVGFGRRNMDVASDELTADVIYQIGSLQGLAKAAGTSVRYVKPHGALYNTIAHDRRQAMAVIEAIRAIDPALVLVALAGSTLIELARSEGLQCIAEAFADRAYTPQGTLVSRREPGAVLHDPELVAQRMLRLVQSGSIEAIDGSLVRIEADSICVHGDSPAAVEMARELRRVLEQASTSLQPFAGKRS", "soluble on expression in E. coli": "soluble"}, {"sequence": "MLIVGINGSPKKEGNTKYLINTVLEEAKSQGVETMVLEVGELLNSVKNPFCVVCSNPCSSICYKGTKLEEAYEILKKADAIVMGSPVYFGSVSAQLKAFFDKTRKLRSEKALYNKFACGVTVGGARFGGQETTMKALHDIMLVHGMTIVGDGYVGDDCGHHGVCAQQPADKDEFAIKRAKILGRRLVDVCKKAGALEHHHHHH", "soluble on expression in E. coli": "soluble"}, {"sequence": "MGHHHHHHSHMVALSNALSRVFGSLAGYKFPSFIQKGINALYVKIFKIDLSEFEPLENYRSLNALFTRSLKKERPFDKSPNICIAPCDALITECAFLDNDSALQIKGMPYKAHELVGEINPLSPSFFYANFYLSPKDYHHYHAPCDLEILEARYFAGKLLPVNKPSLHKNNNLFVGNERVTLVAKDIQGNRLYFVAVGALNVGKMRFNFDKNIQTNAKARFTQTYSYNPPIKVKKGDNLGNFEMGSTIVLFIQNTAFKDLKEKNVKFGESIGEFHAN", "soluble on expression in E. coli": "not soluble"}, {"sequence": "MEYNLDLARAFLQKHRIAVVEPNPPYLQFSEAQLAQQKAKLAKNLQISTACKWLFVHASTGGSATSLSIEQYAQMLNGIASETNCEIVLTAGKGESEKAYQLAAQITATKAVVYDKNDGLQDFARSIACADLFIAGSTGPLHIAGALNVATIGFYPSRLSALPRRWRPINEEGKHLEHHHHHH", "soluble on expression in E. coli": "not soluble"}]}]}
